In patent US20210214440A1:

Target: CD3 (UniProt P07766)
Assay: method and format not stated

- Kd: 80 nM
B1: CD3B450 (antibody, V domains shown)
VH: QVQLQQSGPGLVKPSQTLSLTCAISGDSVFNNNAAWSWIRQSPSRGLEWLGRTYYRSKWLYDYAVSVKSRITINPDTSKNQFSLQLNSVTPEDTAVYYCARGYSSSFDYWGQGTLVTVSS
VL: QSALTQPASVSGSPGQSITISCTGTSSNIGTYKFVSWYQQHPGKAPKVMIYEVSKRPSGVSNRFSGSKSGNTASLTISGLQAEDEADYYCVSYAGSGTLLFGGGTKLTVL
